Kd data for 10 molecules are collected here from patent US20220112276A1 (Janssen / Centocor, published 2022).

Assay in all cases: SPR, VHH captured by anti-Fc, ECD analyte
For experiment [1], the target named is T1, human pIgR extracellular domain (ECD) (human, UniProt P01833 19-638).
T1 construct: Bought from R&D Systems (Cat 2717-PG-050); also called hpIgR ECD
An outline of the steps:
(§1)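 Anti-human Fc surface captured VHH at 0.5 ug/ml (~200-300 RU); running buffer HBSP with 100 ug/ml BSA, 30 μL/min. Single-cycle kinetics with ECD injected low to high from 30 nM in 3-fold dilutions, dissociation 30 min. Double-referenced data globally fit to 1:1 Langmuir model for kon, koff, KD.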

Experiment [2] addresses T2, mouse pIgR extracellular domain (ECD) (mouse, UniProt O70570 19-645).
T2 construct: Bought from R&D Systems (Cat 2800-PG-050); also called mpIgR ECD
T2 sequence: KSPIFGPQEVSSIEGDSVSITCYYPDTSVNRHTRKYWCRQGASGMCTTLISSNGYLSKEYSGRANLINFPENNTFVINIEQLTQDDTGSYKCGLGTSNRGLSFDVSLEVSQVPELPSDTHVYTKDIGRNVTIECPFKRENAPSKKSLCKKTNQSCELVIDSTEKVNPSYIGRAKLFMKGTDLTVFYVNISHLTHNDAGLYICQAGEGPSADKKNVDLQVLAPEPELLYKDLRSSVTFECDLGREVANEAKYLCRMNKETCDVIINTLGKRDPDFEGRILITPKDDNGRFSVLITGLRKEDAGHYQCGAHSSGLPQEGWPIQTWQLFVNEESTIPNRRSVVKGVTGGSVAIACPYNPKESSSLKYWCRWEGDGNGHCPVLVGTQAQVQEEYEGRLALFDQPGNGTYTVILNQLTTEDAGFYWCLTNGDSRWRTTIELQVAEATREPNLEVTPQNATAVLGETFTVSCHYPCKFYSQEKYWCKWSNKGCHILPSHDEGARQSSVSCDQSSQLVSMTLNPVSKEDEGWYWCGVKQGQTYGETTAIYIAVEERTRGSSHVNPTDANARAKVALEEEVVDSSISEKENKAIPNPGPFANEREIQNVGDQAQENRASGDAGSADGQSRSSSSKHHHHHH
In short, it runs like this:
as §1

Experiment [3] concerns the target T3, rat pIgR extracellular domain (rat, UniProt P15083 19-643).
T3 construct: extracellular domain
T3 sequence (looked up): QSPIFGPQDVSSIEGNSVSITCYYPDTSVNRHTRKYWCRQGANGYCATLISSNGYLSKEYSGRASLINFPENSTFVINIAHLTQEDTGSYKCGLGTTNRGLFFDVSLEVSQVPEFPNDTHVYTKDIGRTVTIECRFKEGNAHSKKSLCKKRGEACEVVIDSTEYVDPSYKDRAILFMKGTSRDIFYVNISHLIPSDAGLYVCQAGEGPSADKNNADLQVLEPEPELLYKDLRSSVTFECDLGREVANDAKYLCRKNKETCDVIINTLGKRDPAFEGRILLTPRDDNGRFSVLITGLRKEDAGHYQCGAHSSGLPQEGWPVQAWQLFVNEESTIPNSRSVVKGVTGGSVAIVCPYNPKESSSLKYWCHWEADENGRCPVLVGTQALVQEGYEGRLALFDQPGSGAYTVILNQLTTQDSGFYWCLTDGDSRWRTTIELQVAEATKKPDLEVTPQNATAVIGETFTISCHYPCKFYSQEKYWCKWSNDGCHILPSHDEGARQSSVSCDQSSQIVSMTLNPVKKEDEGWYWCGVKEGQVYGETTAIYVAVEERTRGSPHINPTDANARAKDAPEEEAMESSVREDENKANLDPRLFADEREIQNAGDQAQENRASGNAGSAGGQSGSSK
In short, it runs like this:
as §1

In experiment [4] the target is T4, cynomolgus monkey pIgR extracellular domain (cynomolgus monkey, UniProt A0A2K5WMU9 19-638).
T4 construct: extracellular domain
In short, it runs like this: as §1

T1 sequence (P01833 other isoform, or with tags, fused parts or gaps): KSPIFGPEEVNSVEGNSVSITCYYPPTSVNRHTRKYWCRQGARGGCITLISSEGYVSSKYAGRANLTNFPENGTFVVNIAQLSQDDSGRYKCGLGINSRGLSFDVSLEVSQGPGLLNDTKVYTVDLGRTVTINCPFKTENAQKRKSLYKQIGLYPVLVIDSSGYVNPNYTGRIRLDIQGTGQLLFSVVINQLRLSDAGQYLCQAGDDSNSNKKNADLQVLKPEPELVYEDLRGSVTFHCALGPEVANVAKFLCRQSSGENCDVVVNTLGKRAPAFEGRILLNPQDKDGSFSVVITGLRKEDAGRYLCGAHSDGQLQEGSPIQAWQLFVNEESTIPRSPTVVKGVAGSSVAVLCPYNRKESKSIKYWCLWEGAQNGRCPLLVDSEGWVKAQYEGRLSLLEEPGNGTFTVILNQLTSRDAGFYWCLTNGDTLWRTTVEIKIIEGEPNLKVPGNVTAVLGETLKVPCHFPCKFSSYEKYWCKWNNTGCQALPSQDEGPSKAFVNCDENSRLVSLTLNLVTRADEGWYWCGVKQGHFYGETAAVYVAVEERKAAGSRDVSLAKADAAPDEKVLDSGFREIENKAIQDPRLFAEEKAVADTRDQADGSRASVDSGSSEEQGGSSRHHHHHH
T4 sequence (A0A2K5WMU9 entry or part of it): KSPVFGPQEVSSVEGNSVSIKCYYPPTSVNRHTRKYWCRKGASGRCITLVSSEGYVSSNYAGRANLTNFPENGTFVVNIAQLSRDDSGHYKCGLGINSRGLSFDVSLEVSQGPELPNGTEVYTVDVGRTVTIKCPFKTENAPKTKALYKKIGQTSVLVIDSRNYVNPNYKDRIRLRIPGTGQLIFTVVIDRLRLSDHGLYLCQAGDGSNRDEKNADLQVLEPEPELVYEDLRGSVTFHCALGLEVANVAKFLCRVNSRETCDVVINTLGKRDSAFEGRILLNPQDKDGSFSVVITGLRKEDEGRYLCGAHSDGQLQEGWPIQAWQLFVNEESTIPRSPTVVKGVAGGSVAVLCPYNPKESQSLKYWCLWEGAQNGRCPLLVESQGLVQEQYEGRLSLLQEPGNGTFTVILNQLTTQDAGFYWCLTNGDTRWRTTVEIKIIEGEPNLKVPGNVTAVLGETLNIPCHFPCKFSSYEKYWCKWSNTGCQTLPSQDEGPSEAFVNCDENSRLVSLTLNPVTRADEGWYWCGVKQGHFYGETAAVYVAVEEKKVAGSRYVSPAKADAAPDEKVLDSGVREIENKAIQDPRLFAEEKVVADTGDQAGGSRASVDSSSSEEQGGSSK

B1: 01E01R3LS VHH Mono-Fc (Fc fusion)
chain: QVQLVESGGGLVQAGGSLRLSCAASGRSFSSYNMGWFRQAPGKERDLVAVVTWSGGGTSYADSVKGRFTIARDNANARLYLEMTSLKPEDTAIYYCAATQDWYGGTRAFRAASFHSWGQGTQVTVSSSPAPELLGGPSVFLFPPKPKDTLMISRTPEVTCVVVDVSHEDPEVKFNWYVDGVEVHNAKTKPREEQYNSTYRVVSVLTVLHQDWLNGKEYKCKVSNKALPAPIEKTISKAKGQPREPQVYTKPPSREEMTKNQVSLSCLVKGFYPSDIAVEWESNGQPENNYKTTVPVLDSDGSFRLASYLTVDKSRWQQGNVFSCSVMHEALHNHYTQKSLSLSPGK
Usually Kd stands for a measure of binding affinity in units of concentration. For B1, the Kd is 14.5 nM in experiment [1], 34.5 nM in experiment [2] and 35.2 nM in experiment [3].

B2: 01A09R3LS VHH Mono-Fc (Fc fusion)
chain: QVQLVESGGGLVQAGGSLRLSCAASGRSFSSYNMVWLRQAPGKEREVVAAVTWSGGGTSYADSVKGRFTISRDNANVRVYLQMTGLKPEDTAIYYCAATQDWYGGSRAFRAASFHSWGQGTLVTVSSSPAPELLGGPSVFLFPPKPKDTLMISRTPEVTCVVVDVSHEDPEVKFNWYVDGVEVHNAKTKPREEQYNSTYRVVSVLTVLHQDWLNGKEYKCKVSNKALPAPIEKTISKAKGQPREPQVYTKPPSREEMTKNQVSLSCLVKGFYPSDIAVEWESNGQPENNYKTTVPVLDSDGSFRLASYLTVDKSRWQQGNVFSCSVMHEALHNHYTQKSLSLSPGK
Turning to B2, the Kd turned out to be 35.2 nM in experiment [2] and 22.5 nM in experiment [3].

B3: 01B11R3LS VHH Mono-Fc (Fc fusion)
chain: EVQLVESGGGVVQAEDSLRLSCAAPGLPFSSSRMGWFRQAPGKEREFVAAIGWSGRSTYRYYGDSVKGRFTVSGDNAKNTLDLQMKGLKPEDTAVYYCAADPDYYGDYRTSGAWRYWGQGTQVTVSSSPAPELLGGPSVFLFPPKPKDTLMISRTPEVTCVVVDVSHEDPEVKFNWYVDGVEVHNAKTKPREEQYNSTYRVVSVLTVLHQDWLNGKEYKCKVSNKALPAPIEKTISKAKGQPREPQVYTKPPSREEMTKNQVSLSCLVKGFYPSDIAVEWESNGQPENNYKTTVPVLDSDGSFRLASYLTVDKSRWQQGNVFSCSVMHEALHNHYTQKSLSLSPGK
Turning to B3, the Kd in experiment [2] came out at 12.8 nM; in experiment [3] it was 19.9 nM.

B4: 01C02R3LS VHH Mono-Fc (Fc fusion)
chain: QVQLVESGGGLVQAGDSLRLSCAASGRTRTTYGMGWFRQAPGKEREFVTTITWSGSTNYKYYADSVKGRFTISRDNAKNTVYLQMNSLKPDDTAVYYCAASTVLTDPRVPTEYDYWGQGTQVTVSSSPAPELLGGPSVFLFPPKPKDTLMISRTPEVTCVVVDVSHEDPEVKFNWYVDGVEVHNAKTKPREEQYNSTYRVVSVLTVLHQDWLNGKEYKCKVSNKALPAPIEKTISKAKGQPREPQVYTKPPSREEMTKNQVSLSCLVKGFYPSDIAVEWESNGQPENNYKTTVPVLDSDGSFRLASYLTVDKSRWQQGNVFSCSVMHEALHNHYTQKSLSLSPGK
On to B4, for which the Kd in experiment [4] was 3.09 nM; in experiment [1], 8.62 nM; in experiment [2], 4.96 nM; in experiment [3] it was 2.77 nM.

B5: 01B10R3L VHH Mono-Fc (Fc fusion)
chain: QVQLVESGGGLVQAGDSLRLSCAASGRTFTTYVMGWFRQPPGKEREFVATISWSGSTTYKYYADSVKGRFTISRDNAKNTVYLQMNSLKPEDTAVYYCAASTVVADPRAPNEYDYWGQGTQVTVSSSPAPELLGGPSVFLFPPKPKDTLMISRTPEVTCVVVDVSHEDPEVKFNWYVDGVEVHNAKTKPREEQYNSTYRVVSVLTVLHQDWLNGKEYKCKVSNKALPAPIEKTISKAKGQPREPQVYTKPPSREEMTKNQVSLSCLVKGFYPSDIAVEWESNGQPENNYKTTVPVLDSDGSFRLASYLTVDKSRWQQGNVFSCSVMHEALHNHYTQKSLSLSPGK
On to B5, for which the dissociation constant Kd in experiment [4] was determined as 2.19 nM; in experiment [1] it was 8.4 nM; in experiment [2], 3.75 nM; in experiment [3], 1.58 nM.

B6: 01C08R2L VHH Mono-Fc (Fc fusion)
chain: EVQLVESGGGLVQAGDSLRLSCAASGRTFTTYGVGWFRQAPGKEREFVTTITWSGSTNYKYYADSVKGRFTISRDNAKNTVYLQMNSLKPDDTAVYYCAASTVLTDPRVPTEYDYWGQGTQVTVSSSPAPELLGGPSVFLFPPKPKDTLMISRTPEVTCVVVDVSHEDPEVKFNWYVDGVEVHNAKTKPREEQYNSTYRVVSVLTVLHQDWLNGKEYKCKVSNKALPAPIEKTISKAKGQPREPQVYTKPPSREEMTKNQVSLSCLVKGFYPSDIAVEWESNGQPENNYKTTVPVLDSDGSFRLASYLTVDKSRWQQGNVFSCSVMHEALHNHYTQKSLSLSPGK
In the case of B6, the Kd in experiment [4] came to 4.14 nM; in experiment [1] it was 9.44 nM; in experiment [2], 5.67 nM; in experiment [3], 3.02 nM.

B7: 02G06R3 VHH Mono-Fc (Fc fusion)
chain: EVQLVESGGGLVQAGGSLRLSCAASGRTFDSYAMGWFRQAPGKEREFVAAISWTGGSTDYADSVKGRFTISRDNAKNTVYLQMDSLKPEDTAVYYCAAEVVGRDVTTMYRVSGLEYEYDYWGQGTQVTVSSSPAPELLGGPSVFLFPPKPKDTLMISRTPEVTCVVVDVSHEDPEVKFNWYVDGVEVHNAKTKPREEQYNSTYRVVSVLTVLHQDWLNGKEYKCKVSNKALPAPIEKTISKAKGQPREPQVYTKPPSREEMTKNQVSLSCLVKGFYPSDIAVEWESNGQPENNYKTTVPVLDSDGSFRLASYLTVDKSRWQQGNVFSCSVMHEALHNHYTQKSLSLSPGK
As to B7, the Kd turned out to be 32.3 nM in experiment [2] and 73.5 nM in experiment [3].

B8: 02F10R3 VHH Mono-Fc (Fc fusion)
chain: EVQLVESGGGLVQPGGSLRLSCVVSGSFFSLRDMGWYRQAPGKERELVGIFTRGGTTYYADSVKGRFTISRDNAKNTVDLQMNSLKPEDTAVYTCNAEIRQYSANLYRDFWGQGTQVTVSSSPAPELLGGPSVFLFPPKPKDTLMISRTPEVTCVVVDVSHEDPEVKFNWYVDGVEVHNAKTKPREEQYNSTYRVVSVLTVLHQDWLNGKEYKCKVSNKALPAPIEKTISKAKGQPREPQVYTKPPSREEMTKNQVSLSCLVKGFYPSDIAVEWESNGQPENNYKTTVPVLDSDGSFRLASYLTVDKSRWQQGNVFSCSVMHEALHNHYTQKSLSLSPGK
Consider B8, for which the dissociation constant (Kd) was determined as 6.15 nM in experiment [2] and 6.45 nM in experiment [3].

B9: 01B03R2LS VHH Mono-Fc (Fc fusion)
chain: EVQLVESGGGLVQAGDSLRLSCAASGRTGSSGAMGWFRQGPGKEREFVAALMWRNTVTYSYYADSVKGRFTISRDNAKNTAYLQMNSLKPEDTAVYYCAADPDTYGDPRNSGAYSYWGQGTLVTVSSSPAPELLGGPSVFLFPPKPKDTLMISRTPEVTCVVVDVSHEDPEVKFNWYVDGVEVHNAKTKPREEQYNSTYRVVSVLTVLHQDWLNGKEYKCKVSNKALPAPIEKTISKAKGQPREPQVYTKPPSREEMTKNQVSLSCLVKGFYPSDIAVEWESNGQPENNYKTTVPVLDSDGSFRLASYLTVDKSRWQQGNVFSCSVMHEALHNHYTQKSLSLSPGK
Turning to B9, the Kd in experiment [2] was found to be 6.33 nM; in experiment [3], 11 nM.

B10: 02D07R3 VHH Mono-Fc (Fc fusion)
chain: EVQLVESGGGLVQPGGQLRLSCAASGSIASIRDMAWYRQAPGKQRELVAIFARGGTTHYADSVKGRFTISRDNAKNTVYLQVNSLEPEDTAAYYCNAEVATMFQPGFRDYWGRGTQVTVSSSPAPELLGGPSVFLFPPKPKDTLMISRTPEVTCVVVDVSHEDPEVKFNWYVDGVEVHNAKTKPREEQYNSTYRVVSVLTVLHQDWLNGKEYKCKVSNKALPAPIEKTISKAKGQPREPQVYTKPPSREEMTKNQVSLSCLVKGFYPSDIAVEWESNGQPENNYKTTVPVLDSDGSFRLASYLTVDKSRWQQGNVFSCSVMHEALHNHYTQKSLSLSPGK
For B10, the Kd stood at 4.38 nM in experiment [2] and 2.37 nM in experiment [3].
